1 molecule from US20240254220A1, “COMBINED THERAPY USING ANTI-CD300C ANTIBODY” (CentricsBio, Inc., priority 2021, published 2024) can be followed below.

This assay has as its target T1, CD300c antigen (Homo sapiens, UniProt Q08708).
T1 construct: purchased Sino Biological 11832-H08H
T1 sequence (Q08708 21-183): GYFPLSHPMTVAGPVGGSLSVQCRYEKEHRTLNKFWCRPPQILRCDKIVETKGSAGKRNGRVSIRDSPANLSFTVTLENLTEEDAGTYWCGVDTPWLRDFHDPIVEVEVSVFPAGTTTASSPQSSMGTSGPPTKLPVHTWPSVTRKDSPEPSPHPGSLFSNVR
The assay can be described thus: Binding ELISA of anti-CD300c monoclonal antibodies to CD300c antigen. Conditions: CD300c antigen coated at 8 μg/mL, absorbance 450 nm. The protocol:
In order to identify the antigen-binding ability of the anti-CD300c monoclonal antibodies produced in Example 1, binding ELISA was performed. Specifically, a CD300c antigen (11832-H08H, Sino Biological) or a CD300a antigen (12449-H08H, Sino Biological) in a coating buffer (0.1 M sodium carbonate, pH 9.0) was dispensed into an ELISA plate at a concentration of 8 μg/mL per well, followed by incubation at room temperature for 3 hours to allow the antigen to be bound to the plate. The unbound antigens were removed by washing three times using phosphate buffered saline-Tween 20 (PBST), and then 300 μL of PBST supplemented with 5% bovine serum albumin (BSA) was added to each well, followed by incubation at room temperature for 1 hour and then washing using PBST. Then, an anti-CD300c monoclonal antibody was diluted in quadruplicate and added thereto, followed by incubation for 1 hour at room temperature for antigen binding. After 1 hour, washing was performed three times using PBST to remove unbound anti-CD300c monoclonal antibody, and then 4 μg/mL of an antibody for detection (HRP conjugated anti-Fc IgG) was added, followed by incubation again at room temperature for 1 hour. […] Then, 2 N sulfuric acid solution was added to terminate the development reaction, and the absorbance was measured at 450 nm to identify the antibodies specifically binding to the CD300c antigen.
On the technique in general: ELISA stands for enzyme-linked immunosorbent assay.

B1: CL8: anti-CD300c monoclonal antibody, VH3VL1 phage library, VH SEQ ID 331, VL SEQ ID 332 (antibody, V domains shown)
VH: EVQLLESGGGLVQPGGSLRLSCAASGFTFSSYAMSWVRQAPGKGLEWVSAISGSGGSTYYADSVKGRFTISRNNSKNTLYLQMNSLRAEDTAVYYCARSGRYADLTSGGQGTLVTVSS
VL: QSVLTQPPSASGTPGQRVTISCSGSNSNIGNNYVSWYQQLPDTPPKLLIYDNNKRPSGVPDRFSGSKSGTSASLAISGLRSEDEADYYCSSYTSSSTVMFGGGTKLTVL
modifications: CL8 Heavy Chain Variable Region; CL8 Light Chain Variable Region
For orientation: EC50 means the concentration giving half of the maximal effect. Low readings indicate an effect from little substance, high ones a need for much substance. With B1, the concentration giving a half-maximal response (EC50) is 49.7 µg/mL.
